The results in this text go back to a protein production outcome set (Wang et al. 2014).

This series can be described thus: label from the status in PepcDB records.

For the sequence “MDEKKIPRSLQAIIAQVKAHYADDQELQTLFEQCFLNTYLTTIQEDEQGTFVVTGDIPAMWLRDSSAQVRPYLTVVKEDADMARMIKGVIERQWRYILHDPYANAFNQTANKQGHQQDRTEMSPLVWERKYELDSLCYPIQLAYLYWKATGDDSVLQPTLKQVLETIYRIWKIEQDHEAKSSYSFERDDCRVSDTLLRKGKGGYSVPTGMTWSGFRPSDDACLYGYLIPANMFAVVVSNYAVELLTAMEEIKLAEEFRELEADIRQGIGQYGKMDHPVYGEIYVYETDGNGRVNLMDDANVPSLLAIPYLGYTTADDPVYQNTRRFILSRDNPYYYEGSYAKGVGSPHTPDHYVWHISLAIQGMTAIDSKEKKQIVAMFKQTHADTYFMHEGFDVDRPEQYTRSWFAWANSMFSEFLLSEAGIYVPGSPLENMKNNKAGDRHVLSTGKAAKPNQ”, the protein production entry is “failed”.

In the case of “MDELFTESAKAVLAIAQEEAKYFRHQSVGSEHLLLALVLEPNGIAGKTLRQLNTDTEDIREEIEHLSGYGTMQSPMGNNNLYLPYSPRAKQIFAYAGDEAKRLGAQKIGTEHLLLGLLRDEEILASRILVNLGLSLSKMRQLLLKKMG”, the protein production entry is listed as “not failed”.

For the sequence “MDELRELLKGEQQGIKILKEVLKKAKEGDEQELARLNQEIVKGEKQGVKVYKEAAEKARNPEKRQVIDKILEDEEKHIEWHKAASKQGNAEQFASLVQQHLQDEQRHVEEIEKKNLEHHHHHH”, the protein production result is on record as “not failed”.

Consider “MDETEHMPRYTLTLVDSTGAMEPLILMDDDLKSIAAKLEGRVSAKTRGRRPRGTGGISATPKGYRAYSTVTDPLTGKDHRVSGFGRTRSQAEARLKEKLAEFDRTHRVGYVRPPTVAEWMDHWLTDVCKPRLKPRTWGTYASVIANNIVPSIGAVRLDELKPAHFRRMERYVMDEQGKSSGTAGSAWRTLHKALEDAVLEGVIERNPAVKGTAPRVALKERAALTPEQAADLIAAETDDTWRLMWMLAFMTGMRQGERLGLTEDELRRDGDRLIILVEWQAQHLTKREVEGLPKGVECTPLGNGMYRTRPKTEKGRRAIPLPEALADQLLAYIERHGVNGDGLVFHDDRGLPLTGCVERRRWYRALDRVGLGHEYVPHSARHTTATILNRLGLDDVTRTAIMGHSRVSTTNEIYTHVELDRLVAATDGVERAIEG”, for which the protein production entry is “failed”.

In the case of “MDETGNLTVSSATCHDTIDDFRNQVYSTLYSMISVVGFFGNGFVLYVLIKTYHKKSAFQVYMINLAVADLLCVCTLPLRVVYYVHKGIWLFGDFLCRLSTYALYVNLYCSIFFMTAMSFFRCIAIVFPVQNINLVTQKKARFVCVGIWIFVILTSSPFLMAKPQKDEKNNTKCFEPPQDNQTKNHVLVLHYVSLFVGFIIPFVIIIVCYTMIILTLLKKSMKKNLSSHKKAIGMIMVVTAAFLVSFMPYHIQRTIHLHFLHNETKPCDSVLRMQKSVVITLSLAASNCCFDPLLYFFSGGNFRKRLSTFRKHSLSSVTYVPRKKASLPEKGEEICKV”, the protein production result is “failed”.

As to “MDEVLKEILSSYQKRALKLTKRVRKKIFKNDPTENQKKAIKIALNTPDIAIIQGPPGTGKTTVINAICERLFEEYPKDKNIKGQILLCAQGHDATNNARERIKVGGLPTFKFGAKKNAKEEQYKQDERLNERLREFAETLIESVRKKLQKLGDYENIEKILDLEEALRRYYSSPISELEFLKEIEKNESFF”, the protein production entry is recorded as “failed”.

For the sequence “MDFDYTIKALKTKKKLDAKPNTHTDFVYTTKALRSRKKLDTKPNIHTDFGYAIKAWRSKKKLDIVLESNMTRYMCMIEYKN”, the protein production entry was “failed”.

For “MDFKSSDAIRGPRTEDHLPHTAQAAVKIVIVGGFGVGKTTMVGSVSEIRPLTTEETMTQMGIGVDDNYGSESKTATTVAMDFGRISITEQLVLYLFGTPGQERFWFLWNGLFEGALGAVVLIDTRRLEVSFDVIGRLEERGVPFVIAVNDFPDAPRYPVEDLRGALDLTEDIPIVKCDARRRASSREVLMTLMHFLHSLAVSKTSVLEHHHHHH”, the protein production result is given as “failed”.

On to “MDFLTKLAIAFLIGIMVGVEREHRGLEHEIFAGVRSYSITCITGMLVALASESIGTGFVYVSTLFFAAMCSIITYSKIFLFKRIGVTSPITLFFIFVMGVLVGYDYGLFAIVSSIVVAFLLIQKQPLHQFAGNLTKEELYNAIQFLAVAFILYPVMPEKQFFGLLNLRYAILIVILVSLISFSSYVLLRKFGTKRGLYYSGFLGGFINSEATTGALAGLSKKAEEMAAPVITGILLCNISMLIRNLVLAFIVDPTGRTTMLMLLPQLVLIIVSIGMAYRHSKKVCPIGGGELKIQSPFSLGQAFKFGIAFTLILVIGNFAYNAAGTTGIYLTALGALVSSSGVIVSVTLLAVSGNISYEVAANTAVIASLVSTVNKILLSKISGSSSLFSLAIKDFGIIAATGTLALVILNFL”, for which the protein production result was “failed”.

With “MDGATLAEVMRQRGINMRYLGKVLDLVLRSPARDQLDHIYKIGIGELITRSAKHIFKTYLQGVELSGLSAAISHFLNCFLSSYPNPVAHLPADELLSKKRNKRRKNRPPGAADNTAWAVMTPQELWKNICHEAKNYFDFTLECDSVDQAVETYGLQKITLLREISLKTGIQILLKEYSFDSRHKPAFTEEDVLNIFPVVKHVNPKASDAFHFFQSGQAKVQQGFLKEGCELINEALNLFNNVYGAMHVEICACLRLLARLHYIMGDYAEALSNQQKAVLMSERVMGIEHPNTIQEYMHLALYCFASSQLSTALSLLYRARYLMLLVFGEDHPEMALLDNNIGLVLHGVMEYDLSLRFLENALAVTTKYHGPKALKVALSHHLVARVYESKAEFRSALQHEKEGYTIYKTQLGEDHEKTKESSEYLKCLTQQAVALQRTMNEIYRNGSSANIPPLKFTAPSMTSVLEQLNVINGILFIPLSQKDLENLKAEVARRHQLQEANRNRDKAEEQPMAPEPEPEPEPERAVEDMGSPQTAKEGPSSLNLQG”, the protein production result is recorded as “failed”.

With “MDGLHVSIVSVALFIILFVIFVFLGFYGSRWRRGDLSKLHEWALAGRRLGPYLMWFLLTADLYTAYTFIAVPSLVLASGPVGFFAAFYSAVTPFIALLFMPRLWTIAKNRGYVTAADFIKDRFNSRILAGLVAITGVVAELPYIALQIVGMQVALLILLLGLGVSNITLASDLSLLVAFIILAAFVFTSGLRGAALTAVYKDIIILGTIISIAIYVPLAFGGFSGAFHNAQTLSSQINLALNNVNKPIFYNYLPNTLAARTAYISLAIGSAFALYLYPHAVNASVSSDSKKSLKLSLALQPFYSIILAVIALFGILVYANSKVVNFIAKTHSGAVAVPALIGYSMPDWFVGIALLGIFIGGLVPAAIMAIGAANLLTRNIIKEFKPNMSPSTESALAKWISTAFKFLALALVFATPSTYAIQLQLLGGIIILQTLPSVFLGLYTSKLNGYALVGGWAGGMFSGIYLTLLANHFGPLKTSSFITPLGPMYIGVLSTLINLAIGLIGTAIAYGAGWRPVSNIRAEEIA”, the protein production entry is listed as “failed”.

Consider “MDGLIPMALKAVKKNLTRRRYERLSYSATTRESYDFASDIEMNVDGRHHRRGWSVGDFSSLSSRETKRNGGVAPEKSLTPPREGQLVRFKSHRLFSCISGQ”, for which the protein production entry is given as “failed”.

Consider “MDGVYVLSVKEDVPAAGILHAGDLITEIDGQSFKSSQEFIDYIHSKKVGDTVKIKYKHGNKNEEASIKLTAIDKKGTPGIGITLVDDLEHHHHHH”, for which the protein production entry is on record as “failed”.

Take “MDHPFNQMRLKLTTELLLDLGSLKPEHIITPRIATDEELSLIHSYDYIQAIRRASHGILNLQEAKKYGLDGDDTLQFRRMHQHSARIVGGALNLADAIMDKSVKNGCHLGGGLHHSLPGRANGFCIYNDVAITIAYLIKHYNQRVLCIDTDAHHGDGTQWSFYTEDQALIYSIHETGKFLFPGSGHYTERGNEQGFGYTVNIPLEPYTEDSSYLEVFKQTIEPIIASFKPDIIVSVHGVDVHYLDPLTHMSCTLNTLYQIPYIIKSLADTYTNGKVMMFGGGGYNIWKVVPRAWSHVFLALEHHHHHH”: the protein production result is on record as “not failed”.

For the sequence “MDHQLQQLLDLGLEAKCLLVGINGHWGRAPWWSRPQRGRWPGGCGHLPIFQGGPERICRVLLSARGRAAAAMAAVSWPAIRLALSHVANCATAVLPPLAIDRCQAMSRPQRPARRGAEGQVRIVGGRWRNTRLAVPSLTGLRPSSDRVRETLFNWLMPRLPGARVLDLFAGSGALGLEAVSRGAGHATLIERDSSLVQRLRAHVTRLDAATQVQVLQEDAVRWLERAPAALADIVFVDPPFAACLWPAVLERLPAHVAADAWLYLEAPADAPLLPAGWHLHREGATREVRYALYRRAAATLASDPTPVVSV”, the protein production entry was “failed”.

“MDHRASRTGLFILGLCFVLSLLGRGLGESFTVFLLPISGSFGWDRAEVVSIYSLTALCTGLASPLVGRLFDRSGPRVVYTLGMTLLGGALLIAAYAERLWQLQLTVGLCVGLGIAFTGNVPNSILLGRWFGARLPTAMAVVYSAIGAGVLVMLPIAQLLIDRYGWREAYLILGGAMLILLVPLSLMPWRRFAAGADAHAQRPAQDADEDGWTLGSAMRHHAFWALFATFFFTAIGMYSISAQVVAYLVDAGFTPLQAATAWGFSGVVLVVGMLGVSWLDGVIGRRPSILFSYAISITGLVLLWLLQWYPNLLLLGGFVICFGSMIGSRGPLITATAMSIFRGRRVGTIYGTISIGSGLGSAFGSWCGGLLHDLTQSYNPVLGFALVSVVLGMIPFLVVPALRERQ”: the protein production result was “failed”.

With “MDIEERINLVLKKPTEEVLTVENLRHLFEIGAPLQHYIGFEISGYIHLGTGLMAGAKIADFQKAGIKTRVFLADWHSWINDKLGGDLEVIQEVALKYFKVGMEKSIEVMGGDPKKVEFVLASEILEKGDYWQTVIDISKNVTLSRVMRSITIMGRQMGEAIDFAKLIYPMMQVADIFYQGVTIAHAGMDQRKAHVIAIEVAQKLRYHPIVHEGEKLKPVAVHHHLLLGLQEPPKWPIESEEEFKEIKAQMKMSKSKPYSAVFIHDSPEEIRQKLRKAFCPAREVRYNPVLDWVEYIIFREEPTEFTVHRPAKFGGDVTYTTFEELKRDFAEGKLHPLDLKNAVAEYLINLLEPIRRYFEKHPEPLELMRSVKITR”, the protein production result was “not failed”.

Regarding “MDIFQLQGLFLVLSAILGYFLHNRLSVRIVSFVNNWINLPLIFLVTYLQRGFEVSDAKIFLTSVIYNFLMFVIVLYLTREIEPFSRGSVLINSIFMNTINLPFSILLAFRGNYEISATVAVAMATLRLPIVMIIFTYLNKGISVIHNTTNNSIIRTNLSRYLPVITFLIGGSLHYVVGSVINVDIVNTINLILILIVLYEFGYQIRRVIGEMRIKDVTSKPYMIIYISRILISPILIFLILISLGITSKIIIEQVMVTAIMAPAITNVVWARVYGFGTEIIVKSTLILTPISTIIAIIFLILY”, the protein production entry is “failed”.

On to “MDIIRKISHFAGQTFGIWVIVFAVLGFSFPSLFTWISSYITIFLGIIMFGMGLTLQADDFKELVRKPWQVIIGVIAQYTIMPLVAFGLAFGLHLPAEIAVGVILVGCCPGGTASNVMTFLAKGNTALSVAVTTISTLLAPVVTPLLIMLFAKEWLPVSPGSLFISILQAVLFPIIAGLIVKMFFRKQVAKAVHALPLVSVIGIVAIVSAVVSGNRENLLQSGLLIFSVVILHNGIGYLLGFLCAKLLKMDYPSQKAIAIEVGMQNSGLGAALATAHFSPLSAVPSAIFSVWHNLSGSMLATYWSKKVKKKQAGSKSSNLSL”, for which the protein production entry is on record as “failed”.

Regarding “MDIKNGLFIIGVIPTILFAVLTFIFWWKIRKLKDLRTLRLGRLSFFALLFLWITINGIIGSGLVLTELHQNVLLLLLIAEAVVMFLIIPMIIGIIVPISIVVLTIKMWRRESKSIGNLLLAIVVLTFLVVDWIHLSMGRLPDSWIWLKILGMVYPILSIYLAWQFGIFFLSSWVYGRRVRKQRANYYVVLGAGLIQGEHVGKLLGNRILAAVKAVRDNETILVFSGGQGPDEKVSEARAMQRYAVEVLGFPIERTMLEDQSRTTYENLFFSSQLIREKFLFFTSDYHVFRAALFAAMLKLEAQGGKGGKTAMYYRVPAFIREFIAVLNYEKKKHMIRVGIIVAIFLSIAIVSQIGYFWNQR”, the protein production result is “failed”.
